Laboratory results taken from publication PMC3302947.

Target: Vif(155–176) (PPLP peptide) (HIV-1)
Assay: AUC

Vif(155–176) (PPLP peptide)
stoichiometry N: 2
